Data as given in paper doi:10.1101/2021.05.23.445325 (bioRxiv, 2021).
No end group written: not given here.

Tests used:
6His-NXF1 1-198 = molecular target: T1, 6His-NXF1 1-198 (UniProt Q9UBU9 1-198); assay: ITC
T1 sequence (looked up): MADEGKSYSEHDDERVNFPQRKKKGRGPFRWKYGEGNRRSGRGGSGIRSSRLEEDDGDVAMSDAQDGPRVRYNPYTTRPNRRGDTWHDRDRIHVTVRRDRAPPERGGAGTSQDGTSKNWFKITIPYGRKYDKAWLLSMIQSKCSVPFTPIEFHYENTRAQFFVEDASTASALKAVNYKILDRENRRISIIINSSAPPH

GST-NXF1:p15 complex = molecular target: T2, GST-NXF1:p15 complex (UniProt Q9UBU9 1-619; Q9UKK6 1-140); assay: pull-down
T2 sequence (looked up) 1: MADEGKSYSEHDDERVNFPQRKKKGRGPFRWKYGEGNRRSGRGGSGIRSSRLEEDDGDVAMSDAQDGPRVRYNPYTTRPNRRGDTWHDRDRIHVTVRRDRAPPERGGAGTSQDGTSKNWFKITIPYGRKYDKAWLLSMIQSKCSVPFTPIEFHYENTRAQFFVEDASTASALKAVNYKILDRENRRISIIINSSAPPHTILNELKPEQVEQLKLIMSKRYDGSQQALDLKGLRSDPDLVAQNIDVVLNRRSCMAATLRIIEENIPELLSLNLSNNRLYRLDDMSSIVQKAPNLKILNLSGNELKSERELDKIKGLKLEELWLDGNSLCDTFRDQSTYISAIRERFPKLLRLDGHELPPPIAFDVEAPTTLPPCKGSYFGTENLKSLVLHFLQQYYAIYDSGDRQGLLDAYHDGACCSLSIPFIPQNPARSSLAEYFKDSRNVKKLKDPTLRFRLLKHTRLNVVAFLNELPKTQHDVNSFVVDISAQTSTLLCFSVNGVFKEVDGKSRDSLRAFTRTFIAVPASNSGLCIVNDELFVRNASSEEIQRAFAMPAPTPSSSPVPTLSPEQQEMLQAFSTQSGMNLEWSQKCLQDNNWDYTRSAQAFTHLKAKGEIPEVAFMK
T2 sequence (looked up) 2: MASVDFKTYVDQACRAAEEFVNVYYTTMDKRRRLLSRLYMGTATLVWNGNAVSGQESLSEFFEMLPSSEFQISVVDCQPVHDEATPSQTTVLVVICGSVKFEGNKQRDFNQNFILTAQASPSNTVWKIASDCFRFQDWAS

Binder: PRSGRGTGRGGGGGGGGGAPRGRYGPPSRRSEYGRKKRRQRRR (peptide, UniProt Q07955 89-120, looked up) [SRSF1 WT-CPP (SRSF1 aa89-120, V5 tag, TAT protein transduction domain)]
- fold increase of affinity against the wild-type SRSF1 peptide (6His-NXF1 1-198): 5 fold

B1: SRSF1 (amino-acids 11-196), 6His-tagged (domain or fragment, UniProt Q07955 11-196, looked up)
chain: AGNNDCRIYVGNLPPDIRTKDIEDVFYKYGAIRDIDLKNRRGGPPFAFVEFEDPRDAEDAVYGRDGYDYDGYRLRVEFPRSGRGTGRGGGGGGGGGAPRGRYGPPSRRSENRVVVSGLPPSGSWQDLKDHMREAGDVCYADVYRDGTGVVEFVRKEDMTYAVRKLDNTKFRSHEGETAYIRVKVDG
- binding result (GST-NXF1:p15 complex): binds

Binder: PASGAGTGRGGGGGGGGGAPRGRYGPPSAASE (peptide, UniProt Q07955 89-120, looked up, also: FAM label, position not given here) [SRSF1 aa 89-120 m4-mutant peptide]
- fold reduction of affinity against SRSF1 WT-CPP (6His-NXF1 1-198): ~10 fold

Binder: PRSGRGTGRGGGGGGGGGAPRGRYGPPSRRSE (peptide, UniProt Q07955 89-120, looked up, also: FAM label, position not given here) [SRSF1 aa 89-120 wild-type peptide]
- binding result (6His-NXF1 1-198): binds
